The target of test [1] is HIV-1 Env of strain 211-9 (HIV-1).
The target of test [2] is HIV-1 Env of strain 231966.c02 (HIV-1).
Test [3] has as its target HIV-1 Env of strain CAP210.2.00.E8 (HIV-1).
Test [4] has as its target HIV-1 Env of strain CNE53 (HIV-1).
Test [5] concerns the target HIV-1 Env of strain Ce2010_F5 (HIV-1).
The target in test [6] is HIV-1 Env of strain Du156.12 (HIV-1).
Test [7] deals with HIV-1 Env of strain Q259.d2.17 (HIV-1).
In test [8] the target is HIV-1 Env of strain T257-31 (HIV-1).
Test [9] has as its target HIV-1 Env of strain T278-50 (HIV-1).
Test [10] deals with HIV-1 Env of strain THRO4156.18 (HIV-1).
The target of test [11] is HIV-1 Env of strain TRO.11 (HIV-1).
The target of test [12] is HIV-1 Env of strain WITO4160.33 (HIV-1).
The target in test [13] is HIV-1 Env of strain X1193_c1 (HIV-1).
Test [14] concerns the target HIV-1 Env of strain ZM135M.PL10a (HIV-1).
In test [15] the target is HIV-1 Env of strain ZM197M.PB7 (HIV-1).
The target in test [16] is HIV-1 Env of strain ZM233M.PB6 (HIV-1).
Test [17] deals with HIV-1 Env of strain ZM53M.PB12 (HIV-1).

Consider NIH45-46 G54F IgG (antibody), for which the In vitro neutralization IC80 was more than 50 µg/mL in test [1]; 0.24 µg/mL in test [2]; more than 50 µg/mL in test [3]; 0.024 µg/mL in [4]; 0.186 µg/mL in test [5]; 0.019 µg/mL in [6]. Besides, the In vitro neutralization IC80 in test [7] was 0.036 µg/mL; in [8], 0.51 µg/mL; in [9], more than 50 µg/mL; in test [10] it was 3.01 µg/mL; in test [11], 0.3 µg/mL; in test [12] it was 0.14 µg/mL. For the same substance, the In vitro neutralization IC80 in test [13] was found to be 0.026 µg/mL; in test [14], 0.43 µg/mL; in [15], 0.23 µg/mL; in test [16], 0.99 µg/mL; in test [17] it was 0.23 µg/mL.
NIH45-46 G54W IgG (antibody): the In vitro neutralization IC80 is more than 50 µg/mL in test [1]; 0.11 µg/mL in test [2]; more than 50 µg/mL in test [3]; 0.005 µg/mL in [4]; 0.187 µg/mL in test [5]; 0.005 µg/mL in test [6]. Also, the In vitro neutralization IC80 in [7] was 0.014 µg/mL; in test [8], 0.45 µg/mL; in test [9] it was more than 50 µg/mL; in test [10], 1.81 µg/mL; in test [11] it was 0.13 µg/mL; in [12], 0.04 µg/mL. The In vitro neutralization IC80 in test [13] is 0.009 µg/mL; in [14], 0.16 µg/mL; in [15] it was 0.18 µg/mL; in test [16], 0.11 µg/mL; in test [17], 0.16 µg/mL.
In the case of NIH45-46 G54Y IgG (antibody), the In vitro neutralization IC80 was more than 50 µg/mL in [1]; 0.23 µg/mL in test [2]; more than 50 µg/mL in test [3]; 0.027 µg/mL in test [4]; 0.235 µg/mL in test [5]; 0.026 µg/mL in [6]. Further, the In vitro neutralization IC80 in [7] is 0.034 µg/mL; in [8] it was 0.67 µg/mL; in test [9], more than 50 µg/mL; in [10], 2.14 µg/mL; in [11], 0.22 µg/mL; in test [12] it was 0.09 µg/mL. Also, the In vitro neutralization IC80 in test [13] amounted to 0.024 µg/mL; in [14] it was 0.3 µg/mL; in [15], 0.21 µg/mL; in [16], 0.78 µg/mL; in test [17] it was 0.22 µg/mL.
For NIH45-46 IgG (wild type) (antibody), the In vitro neutralization IC80 in [1] was more than 50 µg/mL; in test [2] it was 9.64 µg/mL; in test [3], more than 50 µg/mL; in test [4] it was 0.039 µg/mL; in [5], 0.357 µg/mL; in test [6], 0.054 µg/mL. The In vitro neutralization IC80 was 0.154 µg/mL in test [7]; 1.38 µg/mL in [8]; more than 50 µg/mL in test [9]; 8.22 µg/mL in test [10]; 7.49 µg/mL in test [11]; 0.26 µg/mL in [12]. The In vitro neutralization IC80 in [13] was 0.064 µg/mL; in test [14], 2.79 µg/mL; in test [15], 0.55 µg/mL; in test [16] it was 14.2 µg/mL; in test [17] it was 0.61 µg/mL.
